Consider one protein from patent publication US20210386836.

The target of one series is T1, C1 inhibitor, P05155.
T1 chain: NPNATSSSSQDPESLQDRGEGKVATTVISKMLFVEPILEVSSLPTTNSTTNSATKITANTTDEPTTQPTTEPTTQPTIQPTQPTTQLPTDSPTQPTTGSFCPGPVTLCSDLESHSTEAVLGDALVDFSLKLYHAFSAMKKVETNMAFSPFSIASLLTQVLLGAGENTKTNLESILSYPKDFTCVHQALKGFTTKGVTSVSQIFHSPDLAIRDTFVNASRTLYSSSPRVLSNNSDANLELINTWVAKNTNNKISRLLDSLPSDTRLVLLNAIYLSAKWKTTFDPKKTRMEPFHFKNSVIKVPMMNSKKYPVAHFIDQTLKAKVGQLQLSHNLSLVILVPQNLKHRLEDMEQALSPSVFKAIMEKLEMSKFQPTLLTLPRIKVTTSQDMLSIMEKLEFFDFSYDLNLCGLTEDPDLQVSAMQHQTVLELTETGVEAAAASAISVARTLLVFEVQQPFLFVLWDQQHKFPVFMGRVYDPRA

A further series addresses T2, human C5a, P01031.
T2 chain: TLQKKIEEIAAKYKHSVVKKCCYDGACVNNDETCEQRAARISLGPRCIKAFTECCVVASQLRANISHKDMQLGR

For a further series, the target named is T3, C1s, P09871.
T3 chain: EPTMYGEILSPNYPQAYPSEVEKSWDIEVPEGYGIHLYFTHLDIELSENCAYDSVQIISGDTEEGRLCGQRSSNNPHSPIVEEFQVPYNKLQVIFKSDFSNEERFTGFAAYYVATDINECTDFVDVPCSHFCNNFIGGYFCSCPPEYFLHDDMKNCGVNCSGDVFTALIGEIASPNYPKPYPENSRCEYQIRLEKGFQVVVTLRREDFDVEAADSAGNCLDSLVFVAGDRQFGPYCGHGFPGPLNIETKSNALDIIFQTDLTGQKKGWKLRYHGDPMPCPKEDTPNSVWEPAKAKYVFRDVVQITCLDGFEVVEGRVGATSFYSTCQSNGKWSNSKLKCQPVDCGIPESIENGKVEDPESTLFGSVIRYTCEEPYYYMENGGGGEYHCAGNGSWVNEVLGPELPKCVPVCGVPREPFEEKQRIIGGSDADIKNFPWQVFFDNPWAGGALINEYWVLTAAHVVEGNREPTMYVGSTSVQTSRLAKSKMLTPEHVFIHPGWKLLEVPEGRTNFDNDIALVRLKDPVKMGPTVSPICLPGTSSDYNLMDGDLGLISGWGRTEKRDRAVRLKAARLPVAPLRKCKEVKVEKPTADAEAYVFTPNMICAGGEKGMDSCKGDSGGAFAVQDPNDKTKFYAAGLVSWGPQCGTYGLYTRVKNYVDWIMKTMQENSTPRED

A further series addresses T4, C2, P06681.
T4 chain: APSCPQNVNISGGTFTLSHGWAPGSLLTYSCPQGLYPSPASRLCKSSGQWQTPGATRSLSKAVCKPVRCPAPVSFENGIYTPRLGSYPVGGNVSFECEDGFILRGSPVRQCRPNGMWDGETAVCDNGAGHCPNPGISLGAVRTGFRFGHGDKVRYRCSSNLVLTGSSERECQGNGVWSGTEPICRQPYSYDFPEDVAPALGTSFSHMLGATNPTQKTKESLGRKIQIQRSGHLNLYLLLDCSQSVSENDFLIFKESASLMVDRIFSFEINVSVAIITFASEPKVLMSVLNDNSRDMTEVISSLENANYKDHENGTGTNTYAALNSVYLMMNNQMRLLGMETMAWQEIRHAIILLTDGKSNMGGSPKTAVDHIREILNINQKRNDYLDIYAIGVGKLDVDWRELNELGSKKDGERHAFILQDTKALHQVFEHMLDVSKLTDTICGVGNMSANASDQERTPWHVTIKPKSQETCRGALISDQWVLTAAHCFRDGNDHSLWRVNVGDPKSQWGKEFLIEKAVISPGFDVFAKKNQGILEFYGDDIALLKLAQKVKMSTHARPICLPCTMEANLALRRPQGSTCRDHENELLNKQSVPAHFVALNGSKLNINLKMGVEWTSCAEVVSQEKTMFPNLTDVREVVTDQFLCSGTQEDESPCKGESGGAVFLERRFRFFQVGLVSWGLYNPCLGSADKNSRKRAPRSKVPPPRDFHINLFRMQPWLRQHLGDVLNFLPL

Sequence of C3a, P01024 (P01024 672-748): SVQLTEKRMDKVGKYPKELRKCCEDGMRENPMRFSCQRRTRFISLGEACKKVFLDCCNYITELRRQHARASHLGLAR
Sequence of mouse C3a, P01027 (P01027 671-748): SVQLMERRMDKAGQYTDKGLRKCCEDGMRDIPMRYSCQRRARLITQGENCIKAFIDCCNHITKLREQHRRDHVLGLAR
Sequence of Properidin, P27918 (P27918 28-469): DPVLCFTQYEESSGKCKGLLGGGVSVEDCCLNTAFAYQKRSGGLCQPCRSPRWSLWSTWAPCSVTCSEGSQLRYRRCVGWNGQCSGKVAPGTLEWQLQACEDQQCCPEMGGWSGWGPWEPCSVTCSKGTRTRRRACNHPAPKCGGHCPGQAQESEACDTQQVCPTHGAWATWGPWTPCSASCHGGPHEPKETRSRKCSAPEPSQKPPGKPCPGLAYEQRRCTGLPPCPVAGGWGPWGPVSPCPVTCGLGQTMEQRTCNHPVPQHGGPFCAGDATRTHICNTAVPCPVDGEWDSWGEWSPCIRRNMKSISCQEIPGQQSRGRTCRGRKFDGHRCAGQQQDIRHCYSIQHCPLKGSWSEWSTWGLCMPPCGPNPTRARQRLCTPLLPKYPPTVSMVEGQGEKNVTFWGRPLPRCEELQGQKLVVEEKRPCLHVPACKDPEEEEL
Sequence of BSA, P02769 (P02769 25-607): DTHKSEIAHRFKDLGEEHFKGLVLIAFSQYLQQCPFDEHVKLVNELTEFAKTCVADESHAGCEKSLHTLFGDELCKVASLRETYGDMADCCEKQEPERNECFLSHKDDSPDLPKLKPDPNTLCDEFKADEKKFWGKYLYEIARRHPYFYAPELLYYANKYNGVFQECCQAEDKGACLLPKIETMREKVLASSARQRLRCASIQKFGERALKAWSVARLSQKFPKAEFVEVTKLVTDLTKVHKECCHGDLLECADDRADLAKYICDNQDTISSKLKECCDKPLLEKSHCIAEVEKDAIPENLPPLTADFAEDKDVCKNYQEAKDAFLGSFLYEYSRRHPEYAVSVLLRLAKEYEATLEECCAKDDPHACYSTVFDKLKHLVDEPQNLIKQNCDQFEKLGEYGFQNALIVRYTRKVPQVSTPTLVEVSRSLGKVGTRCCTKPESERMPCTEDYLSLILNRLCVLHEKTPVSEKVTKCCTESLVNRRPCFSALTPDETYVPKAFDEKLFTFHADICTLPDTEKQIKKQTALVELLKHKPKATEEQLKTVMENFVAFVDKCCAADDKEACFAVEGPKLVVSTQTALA
Sequence of Factor B, P00751 (P00751 26-764): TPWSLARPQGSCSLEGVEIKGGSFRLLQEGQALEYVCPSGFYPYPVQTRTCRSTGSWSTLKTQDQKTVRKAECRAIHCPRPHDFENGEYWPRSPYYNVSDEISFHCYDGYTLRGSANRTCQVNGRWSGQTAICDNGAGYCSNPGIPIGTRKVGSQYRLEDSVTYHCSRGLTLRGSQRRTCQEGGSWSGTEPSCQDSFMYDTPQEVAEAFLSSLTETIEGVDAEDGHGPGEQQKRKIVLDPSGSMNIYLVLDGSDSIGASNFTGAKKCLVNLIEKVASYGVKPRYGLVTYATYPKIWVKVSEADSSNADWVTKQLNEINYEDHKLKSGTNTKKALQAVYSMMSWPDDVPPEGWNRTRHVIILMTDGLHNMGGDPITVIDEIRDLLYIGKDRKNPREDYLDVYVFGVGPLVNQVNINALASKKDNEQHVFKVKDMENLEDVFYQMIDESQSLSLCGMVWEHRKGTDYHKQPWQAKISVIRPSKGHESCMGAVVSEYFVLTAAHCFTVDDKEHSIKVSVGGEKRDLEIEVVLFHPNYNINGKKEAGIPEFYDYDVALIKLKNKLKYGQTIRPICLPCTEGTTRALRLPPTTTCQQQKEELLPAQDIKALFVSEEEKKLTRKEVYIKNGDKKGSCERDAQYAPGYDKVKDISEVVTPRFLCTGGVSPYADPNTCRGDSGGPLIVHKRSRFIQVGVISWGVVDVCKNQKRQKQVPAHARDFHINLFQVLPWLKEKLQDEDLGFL

B1: PrtI(ProB) (protein)
chain: AIGETSVQNVKVSVAKNESDSQKFNNSQNLEQKTPQAAAANQNGSQVQNDHTETQLQNQQTTQSQVTQAHTEENNASSIPEPANQADHVKGNVQSAWDQGYKGQNTVVAVIDSGADTSHKDFQTMPSNPKLKQEDVQSKIDQQGYGKYVNEKFPYVYNYADRDNDYIKSDDNNQXNDSPHGQHVSGIIAADGHPEGDQQYVVGVAPEAQLMQLRVFGQFSDEKTDDVARAIYDATNLGADVIQMSLGQGVADQQLTNIEQKAVQYAIDHGVFVSISASNNGNSASVDNPSKVTAKGYGSGSEAGNYEPLNSGTVANPGASKNALTVAAETSGTGKDSDMASFSSWGPLSDFSLKPDLSAPGYQVVSTVNDNQYQTMSGTSMAGPFAAGSAALVIQRLKQTNPELKGAELVAATKALLMNSAKVQTQNGYTTPVSPRRQGAGQIDVGAATANPVYVTAADGTSSLSLRQVDEKTTFTLTFHNLTDQEQSYSFNDLGGGYTEQRDPDSGVFHEVQLAGAHVNGVGNFTLAPKEVKDLQYTLDLQGLNKNQPVEGWLHFTNDKDKSTVVVPYLAYYGDLTSENVFDQNANEEKPDIQGNRFVNENNYPLGVTDQESLKQLVNVDSDYNWQEVAKLYESGKVAFSPNDDHQSDLIKPYAYLKQNVKDLKVEILDAKGNVVRVVSDVQGVDKSYDESGVTKDASLSVSMRDNPDAFEWDGKVYDTKTGQMVTAPDGQYTYRFVATLWNEGPNQKQTADFPVVVDTQAPSLSVKYDSATHTLSGNYEDKGAGFTDYSYVTVQVNDKVFGYKLNEGESGFDNSEKTKGHFNFTLSSDALDALSGSLNKVSVTLSDVANNTTVKTVDVPAVKDQPAVSVWNATEGVEFNKNSKDYNKENDTYTLYGSAAQDFYLNGALVQVRDGKYEVPVKTTTQDLVFSTDQAGKNVLKSFTTFTPKAFFNWQNVDGFDGNFGVNIYSVKTNDPNNAVVQAAVPLGKNVKAYAQDYFTGEVYKGQVENGVATFHVHTSINQGEDGIFKRALLTGWSEVDGPAYNDKQVTSKAGVASSNHLGVYYTTDKVNRKVYTDRADLGVDVQDEAADLSSFGPTAYPGHALADLTTRTDPNPAIHFDYLNDNDTTRFGQNAVTDGYYDSVTKKFTVTGHVDPEVKSLTVLGDSSDENAPQNQVKLGKDGKFSFSFTTENVGQRPVAYIYTDQNGQKVRGTLNVVLDTVAPTLNVDQVNGNELEVKTNNPLFKLSGVVNDNLDGYRLYVNGNNIYREFLNSGYNKLAGLNTDGTDVNPYGPHNFEESFNLNDDNNQPTTHVFTIYVVDQVGNKVEKKIAVNYDPDYVA
modifications: not fully specified; X: residue not identified in the source
In the case of B1, the “digestion (SDS-PAGE)” value with Factor XI was “did not digest”; with BSA, P02769, “did not digest”; with Factor XIII, “did not digest”; with HSA, P02768 it was “did not digest”. The “proteolytic activity (SDS-PAGE)” value with C1 inhibitor, P05155 is given as “None of the complement proteins tested show evidence of breakdown”; with Properidin, P27918, “None of the complement proteins tested show evidence of breakdown”; with Factor B, P00751, “None of the complement proteins tested show evidence of breakdown”; with C1s, P09871, “None of the complement proteins tested show evidence of breakdown”; with C2, P06681, “None of the complement proteins tested show evidence of breakdown”. Besides, the “protein cleavage assay (SDS-PAGE)” value in the series with mouse C3a, P01027 was “has activities against”; with IL-8 it was “has activities against”; with IL-10, “has activities against”; in the series with human C5a, P01031 it was “has activities against”; with C3a, P01024, “has activities against”; with TNF-α it was “has activities against”. Also, the “proteolytic activity (control of enzyme stock)” value with C3a, P01024 was “shown to be active against C3a”.
